Biological target: T1, cynomolgus LAG-3 on CHO cells (cynomolgus)
T1 construct: whole, on cells; also called CHO::cyLAG-3; CHO cells transfected with cynomolgus LAG-3
Assay: FACS on CHO cells transfected with cynomolgus LAG-3
Procedure: 5×10⁴ cells per well were pre-incubated for 1 h in ice-cold PBS containing 5% fetal calf serum (PBS-FCS). […] Cells were washed twice in ice-cold PBS using centrifugation at 300×g and then incubated with a rabbit anti-lipocalin primary antibody (polyclonal rabbit anti-hTlc, Pieris) for 30 min on ice. Cells were then again washed twice in ice-cold PBS, re-suspended in PBS-FCS and incubated 30 min on ice with an antibody labelled with Alexafluor647 (Jackson Immunologics). Cells were subsequently washed and analyzed using intellicyt IQue Flow cytometer (Intellicyt). Fluorescent data generated by lipocalin mutein binding to LAG-3 expressing cells were analyzed using Forecyt software and resulted geometric fluorescent mean were plotted and fitted using Graphpad software.

B1: benchmark anti-LAG-3 antibody, BMS 986016 (SEQ ID NOs: 5 and 6) (antibody, V domains shown)
VH: QVQLQQWGAGLLKPSETLSLTCAVYGGSFSDYYWNWIRQPPGKGLEWIGEINHRGSTNSNPSLKSRVTLSLDTSKNQFSLKLRSVTAADTAVYYCAFGYSDYEYNWFDPWGQGTLVTVSS
VL: EIVLTQSPATLSLSPGERATLSCRASQSISSYLAWYQQKPGQAPRLLIYDASNRATGIPARFSGSGSGTDFTLTISSLEPEDFAVYYCQQRSNWPLTFGQGTNLEIKR
Question: With B1 as the binder, how does the EC50 read?
Answer: Its EC50 is 0.021 µM.
